In publication PMC12326980:

Columns and labels:
Test in all cases: purified protein
Details in all cases: 10 mM HEPES pH 7.5, 200 mM NaCl, 15 µM ZnSO4, 50 µg/mL BSA, 30°C
[1] = system: CO/N=C(\C(=O)N[C@@H]1C(=O)N2C(C(=O)[O-])=C(C[N+]3(C)CCCC3)CS[C@H]12)c1csc(N)n1
[2] = system: CC(C)(O/N=C(\C(=O)N[C@@H]1C(=O)N2C(C(=O)[O-])=C(C[n+]3ccccc3)CS[C@H]12)c1csc(N)n1)C(=O)O
[3] = system: CO/N=C(\C(=O)N[C@@H]1C(=O)N2C(C(=O)O)=C(COC(C)=O)CS[C@H]12)c1csc(N)n1
[4] = system: CCN1CCN(C(=O)N[C@@H](C(=O)N[C@@H]2C(=O)N3[C@@H]2SC(C)(C)[C@@H]3C(=O)O)c2ccccc2)C(=O)C1=O
[5] = system: C[C@@H](O)[C@H]1C(=O)N2C(C(=O)O)=C(SCCN=CN)C[C@H]12

CIM-2 (Chryseobacterium indologenes) was tested, and the Km [1] was 700 ± 200 µM, the kcat [1] was 28 ± 5 s⁻¹ and the kcat/Km [1] was 40000 ± 20000 M⁻¹ s⁻¹. For the same substance, the Km [2] was 2,000 ± 300 µM, the kcat [2] was 380 ± 50 s⁻¹ and the kcat/Km [2] was 180000 ± 50000 M⁻¹ s⁻¹. The Km [3] was 180 ± 20 µM, the kcat [3] was 820 ± 30 s⁻¹ and the kcat/Km [3] was 4.7e+06 ± 700000 M⁻¹ s⁻¹. For the same substance, the Km [4] was 2,400 ± 500 µM, the kcat [4] was 48 ± 7 s⁻¹ and the kcat/Km [4] was 20000 ± 7000 M⁻¹ s⁻¹. The Km [5] was 2,300 ± 300 µM, the kcat [5] was 2000 ± 200 s⁻¹ and the kcat/Km [5] was 900000 ± 200000 M⁻¹ s⁻¹.

CJO-1 (Chryseobacterium joostei) gave a Km [1] of 440 ± 60 µM, a kcat [1] of 19 ± 2 s⁻¹ and a kcat/Km [1] of 43000 ± 9000 M⁻¹ s⁻¹. For the same substance, the Km [2] was 1,000 ± 400 µM, the kcat [2] was 110 ± 30 s⁻¹ and the kcat/Km [2] was 100000 ± 60000 M⁻¹ s⁻¹. The Km [3] was 126 ± 4 µM, the kcat [3] was 528 ± 6 s⁻¹ and the kcat/Km [3] was 4.2e+06 ± 200000 M⁻¹ s⁻¹. For the same substance, the Km [4] was 1,900 ± 300 µM, the kcat [4] was 30 ± 4 s⁻¹ and the kcat/Km [4] was 16000 ± 5000 M⁻¹ s⁻¹. For the same substance, the Km [5] was 2,700 ± 500 µM, the kcat [5] was 280 ± 40 s⁻¹ and the kcat/Km [5] was 100000 ± 30000 M⁻¹ s⁻¹.
